Tests used:
Experiment in all cases: EMSA
[1] = target: HBV core protein K7 mutant (truncated core, C-terminal 7-lysine tail, E77C) (Hepatitis B virus) (UniProt P03149); conditions: phosphate (P) at end of the sequence; 20 mM NaHCO3 pH 9.5, room temperature, agarose gel
[2] = target: HBV core protein K11 mutant (truncated core, C-terminal 11-lysine tail, E77C) (Hepatitis B virus) (UniProt P03149); conditions: phosphate (P) at end of the sequence; 20 mM NaHCO3 pH 9.5, room temperature, agarose gel
[3] = target: HBV core protein K9 mutant (truncated core, C-terminal 9-lysine tail, E77C) (Hepatitis B virus) (UniProt P03149); conditions: phosphate (P) at end of the sequence; 20 mM Tris pH 7.7 (p269 states 10 mM Tris), room temperature, agarose gel

Work on “GGAAAGACUGUUCCAAAAAUUUUCCUUUCUGACAAGGUUUUU / AAAAACCUUGUCAGAAAGGAAAAUUUUUGGAACAGUCUUUCC [siGLO Cyclophilin B siRNA]” yielded a Kd [1] of 370 nM, a Kd [2] of 69 nM and a Kd [3] of 115 nM.

— patent US20090226525
